Changes are numbered by the printed parent chain.
T1: human TL1A, soluble, CHO-expressed, residues 72-251 of SEQ ID NO:244 with N-terminal His6-tag (human, UniProt O95150 72-251)
T1 sequence: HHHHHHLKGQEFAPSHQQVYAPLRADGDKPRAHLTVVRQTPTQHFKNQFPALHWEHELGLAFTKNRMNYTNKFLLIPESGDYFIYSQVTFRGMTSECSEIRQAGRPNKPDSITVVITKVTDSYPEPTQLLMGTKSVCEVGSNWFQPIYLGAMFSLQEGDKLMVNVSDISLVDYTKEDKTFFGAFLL

T2: mouse TL1A, soluble, E. coli-expressed, residues 76-252 of SEQ ID NO:250 (mouse, UniProt Q5UBV8 76-252)
T2 construct: with or without N-terminal Met; also called mTL1A (E. Coli)
T2 sequence: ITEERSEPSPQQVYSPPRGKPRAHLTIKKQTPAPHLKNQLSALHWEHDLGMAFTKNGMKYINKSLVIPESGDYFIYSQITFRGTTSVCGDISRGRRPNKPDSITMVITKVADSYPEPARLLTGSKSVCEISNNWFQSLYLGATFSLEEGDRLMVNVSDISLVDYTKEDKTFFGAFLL

T3: Fhm, hTL1A(Q167R), soluble, CHO-expressed, residues 72-251 of SEQ ID NO:246 (human, UniProt O95150 72-251)
T3 construct: also called Fhm (CHO); FHM (CHO)
T3 chain: T1 sequence with Q102R

T4: cynomolgus monkey TL1A, soluble, E. coli-expressed, residues 72-251 of SEQ ID NO:248 (cynomolgus monkey (Macaca fascicularis), UniProt O95150 72-251 (human entry))
T4 construct: with or without N-terminal Met; also called MfTL1A (E. Coli)
T4 chain: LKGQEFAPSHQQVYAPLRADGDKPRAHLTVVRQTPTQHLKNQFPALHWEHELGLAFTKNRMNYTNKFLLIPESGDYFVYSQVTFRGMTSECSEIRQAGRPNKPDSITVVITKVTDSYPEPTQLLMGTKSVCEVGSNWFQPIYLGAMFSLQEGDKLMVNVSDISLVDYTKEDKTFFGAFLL

T5: Fhm, hTL1A(Q167R), soluble, E. coli-expressed, residues 72-251 of SEQ ID NO:246 (human, UniProt O95150 72-251)
T5 construct: with or without N-terminal Met
T5 chain: T4 chain with L39F, V78I, Q96R

B1: H4H1725P (antibody, human IgG4 S228P, V domains shown)
VH: QVQLVQSGAEVKKPGASVKVSCKASGYTFTGYYMHWVRQAPGQGLEWMGWIKPKSGGTNYVQKFQGRVTMTRDTSINTAYMELNNLKSDDTAVYYCATGGSQDASDFWGQGTMVTVSS
VL: DIQMTQSPSSVSASVGGRVTITCRASQDISIWLAWYQQKPGKAPNLLIYAASSLQSGVPSRFSGSGSGTDFTLTISSLQPEDFATYYCQQADSFPLTFGGGTKVEIK
B2: H4H1742P (antibody, human IgG4 S228P, V domains shown)
VH: EVQLVESGGGLVQPGGSLRLSCAASGFTFSNYVMNWVRQAPGKGLEWVSVISGSGGSTHYADSVKGRFTISRDNSKDALYLQMNSLRAEDTAVYYCAKGPLEAYYYYNGMDVWGQGTTVTVSS
VL: DIQLTQSPSFLSASVGDRVTITCWASQAISSYLAWYQHKPGRAPKLLIYSTSTLQSGVPSRFSGSGSGTEFTLTISSLQPEDFATYYCQQLNSYPTFGQGTKLEIK

Columns and labels:
[1] = biological target: T1, human TL1A, soluble, CHO-expressed, …; experiment: cell-based or functional assay
[2] = biological target: T2, mouse TL1A, soluble, E. coli-expressed, …; experiment: SPR 25C, steady state
In short: (§1)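 Biacore T100 SPR with captured mAb and soluble TL1A/Fhm analyte; ka and kd fitted to a 1:1 model assuming monomeric TL1A. KD = kd/ka; t1/2 (min) = ln2/(60·kd).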

[3] = biological target: T3, Fhm, hTL1A(Q167R), soluble, …; experiment: ELISA, blocks FHM (10 pM) binding hDcR3-Fc
Method: The ability of antibodies to block human TL1A binding to its cognate receptors, the DR3 and DcR3 receptors, was measured using a competition sandwich ELISA. In addition, blocking of a human TL1A variant FHM (human TL1A Q167R) and the cynomolgus monkey (Macaca fascicularis) TL1A (MfTL1A) protein binding to the human DR3 or DcR3 receptors was measured in the same manner. Constant amounts of biotinylated human TL1A or FHM (both expressed with a 6-His tag in CHO cells) or biotinylated MfTL1A (expressed in CHO cells) were separately titrated with varying amounts of antibodies. The antibody-protein complexes were incubated in solution (1 hr, 25° C.) and then transferred to microtiter plates coated with human DR3 (hDR3) or human DcR3 (hDcR3) expressed as human IgG1 Fc fusion proteins. After one hour at 25° C. the wells were washed, and bound human or monkey TL1A was detected with streptavidin conjugated with horseradish peroxidase (HRP). Wells were developed with a TMB solution to produce a colorimetric reaction and quenched with aqueous sulfuric acid before reading absorbance at 450 nm on a Perkin-Elmer Victor X5 plate reader. A sigmoidal dose-response curve was fit to the data using the Prism™ data analysis package. […] Both fully human anti-hTL1A mAbs and comparator antibodies, i.e., control mAb1 (an anti-hTL1A antibody with heavy and light chain variable domains having the amino acid sequences corresponding to SEQ ID NOS:21 and 27, respectively, of US 2009/0280116) and control mAb3 (an anti-hTL1A antibody with heavy and light chain variable domains having the amino acid sequences corresponding to SEQ ID NOS:57 and 48, respectively, of US 2009/0280116), were included in the study. NB: No binding under the conditions tested; NT: Not tested. Concentrations of biotinylated soluble ligands: (1) 150 pM; (2) 500 pM; (3) 10 pM; and (4) 50 pM.

[4] = biological target: T4, cynomolgus monkey TL1A, soluble, E. …; experiment: SPR 25C, mAb captured
In short: as §1

[5] = biological target: T5, Fhm, hTL1A(Q167R), soluble, E. …; experiment: SPR 25C, mAb captured
In short: as §1

| Binder | IC50, IFN-g release, average of donors [1] [nM] | IC50, IFN-g release, donor D1 [1] [nM] | IC50, IFN-g release, donor D2 [1] [nM] | IC50, IFN-g release, donor D3 [1] [nM] | IC50, IFN-g release, donor D4 [1] [nM] | IC50, IFN-g release, donor D5 [1] [nM] | IC50, IFN-g release, donor D6 [1] [nM] | IC50, IFN-g release, donor D7 [1] [nM] | IC50, IFN-g release, donor D8 [1] [nM] | IC50, IFN-g release, donor D9 [1] [nM] | IC50, IFN-g release, donor D10 [1] [nM] | IC50, IFN-g release, donor D11 [1] [nM] | IC50, IFN-g release, donor D12 [1] [nM] | Kd [2] [nM] | IC50 [3] [nM] | Kd [4] [nM] | t1/2 [4] [h] | Kd [5] [nM] | t1/2 [5] [h] | binding result [2] |
| --- | --- | --- | --- | --- | --- | --- | --- | --- | --- | --- | --- | --- | --- | --- | --- | --- | --- | --- | --- | --- |
| B1 | 6.4 | 3.4 | 3.2 | 5.4 | 4.7 | 7 | 5.4 | 13 | 12 | 6.4 | 4.1 | 6.1 | 6.4 | 62 | 0.085 | 0.0637 | 4.87 | 0.0289 | 7.45 |  |
| B2 | 20 | 24 | 4.6 | 10 | 13 | 12 | 10 | 31 | 27 | 56 | 12 | 27 | 14 |  | 0.231 | 0.593 | 1.62 | 0.437 | 2.15 | no binding (tested: up to 100 nM) |
